In the supplement of paper PMC10567573:

B1: SNAP91 (parent)
chain: FGGSFMAPSPSPVTPAQNNLLQPN
B2: IRX6 (parent)
chain: YPCLEKPRIWSLAHTATASAVEGA

Variants of: B1
Assay: protein stability index of a GFP-peptide fusion (GPS, HEK-293T) (PSI 1-6); higher = more stable
Settings: c terminus: a fixed tail appended
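Note: lentivirally expressed fusions sorted by FACS into six bins by GFP to DsRed ratio, PSI derived from sequencing read proportions per bin multiplied by bin number.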

Variant | protein stability index
FGGSFVAPSPSPVTPAQNNLLQPN [M6V] | 2.08
FGGSFMAPSPKPVTPAQNNLLQPN [S11K] | 1.98
FGGSFMAPSPQPVTPAQNNLLQPN [S11Q] | 3.14
FGGSFMAPSPMPVTPAQNNLLQPN [S11M] | 2.83
FGGSFMAPSPRPVTPAQNNLLQPN [S11R] | 1.68
FGGSFMAPSPVPVTPAQNNLLQPN [S11V] | 3.42
FGGSFMAPSPEPVTPAQNNLLQPN [S11E] | 2.38
FRGSFMAPSPSPVTPAQNNLLQPN [G2R] | 3.23
FGGSAMAPSPSPVTPAQNNLLQPN [F5A] | 3.83
FGGSFMAPSPSPVTDAQNNLLQPN [P15D] | 2.67
FGGSFMAPSPSPVTLAQNNLLQPN [P15L] | 1.95
FGGSFMAPSPSPVTGAQNNLLQPN [P15G] | 2.3
FGGSFMAPSPSPVTYAQNNLLQPN [P15Y] | 2.91
FGGSFMAPSPSPVTRAQNNLLQPN [P15R] | 2.4
FGGSFMAPSPSPVTFAQNNLLQPN [P15F] | 2.84
FGGSFMAPSPSPVTWAQNNLLQPN [P15W] | 1.6
FGGSFMAPSPSPVTKAQNNLLQPN [P15K] | 1.83
FGGSFMAPSPSPVTMAQNNLLQPN [P15M] | 3.65
FGGSFMAPSPSPVTCAQNNLLQPN [P15C] | 4.08
FGGSFMAPSPSPVTEAQNNLLQPN [P15E] | 1.93
FGGSFMAPSPSPVTIAQNNLLQPN [P15I] | 2.65
FGGSFMAPSPSPVTAAQNNLLQPN [P15A] | 1.86

Variant | protein stability index
FGGSFMAPSPSPVTVAQNNLLQPN [P15V] | 2.12
FGGSFMAPSPSPVTHAQNNLLQPN [P15H] | 2.27
FGGSFMAPSDSPVTPAQNNLLQPN [P10D] | 2.72
FGGSFMAPSNSPVTPAQNNLLQPN [P10N] | 1.51
FGGSFMAPSYSPVTPAQNNLLQPN [P10Y] | 2.38
FGGSFMAPSKSPVTPAQNNLLQPN [P10K] | 3.1
FGGSFMAPSQSPVTPAQNNLLQPN [P10Q] | 2.7
FGGSFMAPSCSPVTPAQNNLLQPN [P10C] | 2.45
FGGSFMAPSFSPVTPAQNNLLQPN [P10F] | 2.89
FGGSFMAPSLSPVTPAQNNLLQPN [P10L] | 2.55
FGGSFMAPSASPVTPAQNNLLQPN [P10A] | 4.52
FGGSFMAPSESPVTPAQNNLLQPN [P10E] | 1.22
FGGSFMAPSSSPVTPAQNNLLQPN [P10S] | 2.49
FGGSFMAPSGSPVTPAQNNLLQPN [P10G] | 2.18
FGGSFMARSPSPVTPAQNNLLQPN [P8R] | 1.85
FGGSFMAHSPSPVTPAQNNLLQPN [P8H] | 2
FGGSFMASSPSPVTPAQNNLLQPN [P8S] | 2.89
FGGSFMAESPSPVTPAQNNLLQPN [P8E] | 2.24
FGGSFMAVSPSPVTPAQNNLLQPN [P8V] | 2.41
FGGSFMATSPSPVTPAQNNLLQPN [P8T] | 3.12
FGGSFMANSPSPVTPAQNNLLQPN [P8N] | 2.42
FGGSFMALSPSPVTPAQNNLLQPN [P8L] | 3.22

Variant | protein stability index
FGGSFMAGSPSPVTPAQNNLLQPN [P8G] | 2.67
FGGSFMACSPSPVTPAQNNLLQPN [P8C] | 1.64
FGGSFMAQSPSPVTPAQNNLLQPN [P8Q] | 2.92
FGGSFMAPSPSPVWPAQNNLLQPN [T14W] | 1.95
FGGSFMAPSPSPVKPAQNNLLQPN [T14K] | 2.84
FGGSFMAPSPSPVMPAQNNLLQPN [T14M] | 2.4
FGGSFMAPSPSPVDPAQNNLLQPN [T14D] | 1.29
FGGSFMAPSPSPVRPAQNNLLQPN [T14R] | 1.54
FGGSFMAPSPSPVIPAQNNLLQPN [T14I] | 1.7
FGGSFMAPSPSPVNPAQNNLLQPN [T14N] | 1.89
FGGSFMAPSPSPVLPAQNNLLQPN [T14L] | 2.13
FGGSFMAPSPSQVTPAQNNLLQPN [P12Q] | 2.21
FGGSFMAPSPSKVTPAQNNLLQPN [P12K] | 1.47
FGGSFMAPSPSSVTPAQNNLLQPN [P12S] | 1.27
FGGSFMAPSPSHVTPAQNNLLQPN [P12H] | 2.53
FGGSFMAPSPSEVTPAQNNLLQPN [P12E] | 1.77
FGGSFMAPSPSWVTPAQNNLLQPN [P12W] | 1.83
FGGSFMAPSPSRVTPAQNNLLQPN [P12R] | 2.17
FGGSFMAPSPSVVTPAQNNLLQPN [P12V] | 1.73
FGGSFMAPSPSIVTPAQNNLLQPN [P12I] | 1.94
FGGSFMAPSPSGVTPAQNNLLQPN [P12G] | 1.72
FGGSFMAPSPSCVTPAQNNLLQPN [P12C] | 2.72

Variant | protein stability index
FGGSFMAPSPSTVTPAQNNLLQPN [P12T] | 1.01
FGGSFMAPSPSAVTPAQNNLLQPN [P12A] | 2
FGGSFMAPSPSNVTPAQNNLLQPN [P12N] | 2.31
FGGSFMAPMPSPVTPAQNNLLQPN [S9M] | 2.31
FGGSFMAPRPSPVTPAQNNLLQPN [S9R] | 1.89
FGGSFMAPWPSPVTPAQNNLLQPN [S9W] | 3.59
FGGSFMAPQPSPVTPAQNNLLQPN [S9Q] | 1.43
FGGSFMAPVPSPVTPAQNNLLQPN [S9V] | 1.62
IGGSFMAPSPSPVTPAQNNLLQPN [F1I] | 3.99
FGNSFMAPSPSPVTPAQNNLLQPN [G3N] | 3.1
FGDSFMAPSPSPVTPAQNNLLQPN [G3D] | 2.7
FGVSFMAPSPSPVTPAQNNLLQPN [G3V] | 2.37
FGTSFMAPSPSPVTPAQNNLLQPN [G3T] | 2.44
FGGSFMQPSPSPVTPAQNNLLQPN [A7Q] | 2.59
FGGSFMLPSPSPVTPAQNNLLQPN [A7L] | 1.87
FGGSFMVPSPSPVTPAQNNLLQPN [A7V] | 2.54
FGGSFMHPSPSPVTPAQNNLLQPN [A7H] | 3
FGGSFMEPSPSPVTPAQNNLLQPN [A7E] | 2.06
FGGSFMDPSPSPVTPAQNNLLQPN [A7D] | 1.91

Variants of: B2
Assay: as above
Settings: c terminus: a fixed tail appended

Variant | protein stability index
YPCLEKPRIWSLAHTATASAVEGK [A24K] | 3.48
YPCLEKPRIWSLAHTATASAVEGW [A24W] | 2.31
YPCLEKPRIWSLAHTATASAVEGY [A24Y] | 3.06
YPCLEKPRIWSLAHTATASAVEGI [A24I] | 3.09
YPCLEKPRIWSLAHTATASAVEGR [A24R] | 2.99
YPCLEKPRIWSLAHTATASAVEGM [A24M] | 2.52
YPCLEKPRIWSLAHTATASAVEGV [A24V] | 3.01
YPCLEKPRIWSLAHTATASAVEGH [A24H] | 3.03
YPCLEKPRIWSLAHTATASAVEGS [A24S] | 1.91
